Laboratory results as given in paper PMC12432127, “Assessing the potential of bacterial signal peptides for radiopharmaceutical applications” (Scientific Reports, 2025).
Residues, ends and D or L forms follow the SMILES beside them. Groups on a side chain read outwards from the residue. No end group written: not given here. *: point of attachment. FITC = O=C1OC2(c3ccc(O)cc3Oc3cc(O)ccc32)c2ccc(NC(=S)*)cc21; DOTA = O=C(O)CN1CCN(CC(=O)O)CCN(CC(=O)*)CCN(CC(=O)O)CC1; Ahx = NCCCCCC(=O)O; For = O=C*

How the values were obtained:
[1] = Stability in human plasma (radio-HPLC); format: in vitro ADME
Experimental: The radiolabelled compound (50 µL) was added to male human AB plasma (500 µL, Sigma Aldrich, USA, male AB) and incubated at 37 °C. Samples of 100 µL were taken at selected time points. The plasma proteins were precipitated with acetonitrile (-20 °C) and the precipitate was centrifuged for 1 min at 1500 rpm. The supernatant was analyzed by analytical radio-HPLC.

[2] = set-up: species or system mice; conditions: mouse, in vivo, iv
Experimental: (§1) All experiments involving animals were performed in accordance with an animal experimentation license approved by the Zurich Cantonal Veterinary Office, Switzerland (Jason P. Holland; license number ZH095/2023), and in compliance with the […] Animal Welfare Act. This study is reported in accordance with the ARRIVE guidelines (https://arriveguidelines.org). Six to eight-week old male NOD/SCID mice (17-20 g) were obtained from Charles River Laboratories (Lyon, France). Mice were provided with food and water ad libitum. For planar scintigraphy imaging and ex vivo biodistribution studies, mice were injected with 100 μL sterile saline formulations of ~ 250 pmol (~ 10 MBq) [^177Lu]Lu-[…] by intravenous tail-vein injection and anesthetized with isoflurane (2-4% in air). Imaging was performed on Gamma-eye scanner (Bioemtech, Greece) at 5 min and 1 h p.i. Directly after imaging at 1 h p.i., animals were euthanised by isoflurane asphyxiation followed by terminal exsanguination. A total of 13 tissues were removed, rinsed in water, dried in air for approx. 2 min., weighed and counted on a calibrated gamma counter for accumulation of activity. The mass of radiotracer formulation injected into each animal was measured and used to determine the total number of counts per minute (cpm) injected into each mouse by comparison to a standard syringe of known activity and mass.

in vivo = assay: in vivo; set-up: species or system mice; conditions: male, NOD/SCID, mouse, iv, 250 pmol, total radioactivity
Experimental: as §1

FPR1 = biological target: T1, FPR1 (Homo sapiens, UniProt P21462); assay: Cell internalization of radiotracer, FPR1 transfected HEK293T cells; format: cell-based; conditions: 1000-fold excess, all time points
T1 construct: expressed in transfected cells; host or cells: HEK293T (transient, jetPEI)
T1 sequence (P21462 1-350): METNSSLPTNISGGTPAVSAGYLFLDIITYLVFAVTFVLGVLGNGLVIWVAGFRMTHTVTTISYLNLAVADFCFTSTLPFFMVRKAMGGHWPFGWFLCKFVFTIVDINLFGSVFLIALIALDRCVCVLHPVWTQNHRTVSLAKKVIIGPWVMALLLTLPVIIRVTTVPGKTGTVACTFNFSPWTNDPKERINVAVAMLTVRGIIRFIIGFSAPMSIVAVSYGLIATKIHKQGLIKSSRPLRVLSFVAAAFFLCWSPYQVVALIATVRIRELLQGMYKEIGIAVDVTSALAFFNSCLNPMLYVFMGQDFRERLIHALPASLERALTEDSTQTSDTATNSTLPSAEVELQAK
Experimental: The medium was removed from the wells and replaced by fresh complete growth medium (1.3 mL per well). The inhibitor solution BOC-FLFLF (1000-fold excess against the radiotracer, in PBS/DMSO) was added to the wells in the bottom row (100 µL per well). A solution of PBS and DMSO in the same ratio as the inhibitor solution was added to the wells of the top row (100 µL per well). To each well, the radiotracer solution in the desired concentration was added (100 µL per well). The plate was incubated at 37 °C for the time specified for each experiment. The supernatant was removed, and the cells were placed on ice and rinsed twice with ice cold PBS (1 mL per well). Sodium hydroxide (1 M, 2 × 1 mL) was added to detach the cells and the suspension was collected in counting tubes. The tubes were analyzed with an HIDEX gamma counter (HIDEX, Turku, Finland) using the appropriate detection window for the corresponding radionuclide.

[3] = biological target: T2, f-MVPIK(TAMRA)I bacterial signal peptide derivative; assay: confocal fluorescence binding to transfected HEK293T cells
T2 chain: For-MVPIK(TAMRA)I

[4] = biological target: T3, f-MVPIK(FITC)I bacterial signal peptide derivative; assay: as above
T3 chain: For-MVPIK(FITC)I

**Q.** Which “more hydrophilic fragment (partial degradation)” value [1] does the source give for `CC[C@H](C)[C@H](NC(=O)[C@H](CCCCNC(=O)CCCCCNC(=O)CN1CCN(CC(=O)O)CCN(CC(=O)O)CCN(CC(=O)O)CC1)NC(=O)[C@@H](NC(=O)[C@@H]1CCCN1C(=O)[C@@H](NC(=O)[C@H](CCSC)NC=O)C(C)C)[C@@H](C)CC)C(=O)O` [[^177Lu]Lu-f-MVPIK(Ahx-DOTA)I, metal not drawn] (For-MVPIK([Ahx-DOTA])I-OH) here?
**A.** 24%

**Q.** What about the “state of conjugate in human plasma” value [1] of the same molecule?
**A.** completely oxidized

**Q.** What about the “location of administered activity in scintigraphy images” value [2] of the same molecule?
**A.** the majority of the administered activity was found in the bladder

**Q.** What about the “residual activity in scintigraphy images” value [2] of the same molecule?
**A.** only minimal residual activity

**Q.** What about the tissue uptake at 1 h (in vivo; biodistribution blood) of the same molecule?
**A.** 0.12 ± 0.02 %ID/g

**Q.** What about the tissue uptake at 1 h (in vivo; biodistribution bone) of the same molecule?
**A.** 0.75 ± 0.13 %ID/g

**Q.** And the tissue uptake at 1 h (in vivo; biodistribution heart)?
**A.** 0.09 ± 0.01 %ID/g

**Q.** And the tissue uptake at 1 h (in vivo; biodistribution lg intestine)?
**A.** 0.32 ± 0.12 %ID/g

**Q.** What about the tissue uptake at 1 h (in vivo; biodistribution lungs) of the same molecule?
**A.** 0.79 ± 0.12 %ID/g

**Q.** And the tissue uptake at 1 h (in vivo; biodistribution muscle)?
**A.** 0.18 ± 0.03 %ID/g

**Q.** And the tissue uptake at 1 h (in vivo; biodistribution pancreas)?
**A.** 0.1 ± 0.02 %ID/g

**Q.** What about the tissue uptake at 1 h (in vivo; biodistribution skin) of the same molecule?
**A.** 0.49 ± 0.08 %ID/g

**Q.** And the tissue uptake at 1 h (in vivo; biodistribution sm intestine)?
**A.** 0.45 ± 0.09 %ID/g

**Q.** And the tissue uptake at 1 h (in vivo; biodistribution stomach)?
**A.** 0.17 ± 0.05 %ID/g

**Q.** What about the tissue uptake at 1 h (in vivo; uptake kidneys) of the same molecule?
**A.** 3.35 ± 0.19 %ID/g

**Q.** What about the tissue uptake at 1 h (in vivo; uptake liver) of the same molecule?
**A.** 3.02 ± 0.23 %ID/g

**Q.** What about the tissue uptake at 1 h (in vivo; uptake spleen) of the same molecule?
**A.** 4.43 ± 0.38 %ID/g

**Q.** With BOC-FLFLF as the molecule, how does the “effect of blocking agent on cell-bound activity of the radiotracer” value (FPR1) read?
**A.** considerably reduced the cell-bound activity

B1: FPR1 (protein)
chain: METNSSLPTNISGGTPAVSAGYLFLDIITYLVFAVTFVLGVLGNGLVIWVAGFRMTHTVTTISYLNLAVADFCFTSTLPFFMVRKAMGGHWPFGWFLCKFVFTIVDINLFGSVFLIALIALDRCVCVLHPVWTQNHRTVSLAKKVIIGPWVMALLLTLPVIIRVTTVPGKTGTVACTFNFSPWTNDPKERINVAVAMLTVRGIIRFIIGFSAPMSIVAVSYGLIATKIHKQGLIKSSRPLRVLSFVAAAFFLCWSPYQVVALIATVRIRELLQGMYKEIGIAVDVTSALAFFNSCLNPMLYVFMGQDFRERLIHALPASLERALTEDSTQTSDTATNSTLPSAEVELQAK
**Q.** With B1 as the molecule, how does the Kd [3] read?
**A.** 3.8 nM

**Q.** What about the Kd [4] of the same molecule?
**A.** 1.1 nM
